From doi:10.1101/367656

Biological target: T1, RIG-IΔN (2CARD deletion);RIPLET (Homo sapiens;Homo sapiens, UniProt O95786;Q8IUD6 201-925;1-432, |)
T1 sequence 1: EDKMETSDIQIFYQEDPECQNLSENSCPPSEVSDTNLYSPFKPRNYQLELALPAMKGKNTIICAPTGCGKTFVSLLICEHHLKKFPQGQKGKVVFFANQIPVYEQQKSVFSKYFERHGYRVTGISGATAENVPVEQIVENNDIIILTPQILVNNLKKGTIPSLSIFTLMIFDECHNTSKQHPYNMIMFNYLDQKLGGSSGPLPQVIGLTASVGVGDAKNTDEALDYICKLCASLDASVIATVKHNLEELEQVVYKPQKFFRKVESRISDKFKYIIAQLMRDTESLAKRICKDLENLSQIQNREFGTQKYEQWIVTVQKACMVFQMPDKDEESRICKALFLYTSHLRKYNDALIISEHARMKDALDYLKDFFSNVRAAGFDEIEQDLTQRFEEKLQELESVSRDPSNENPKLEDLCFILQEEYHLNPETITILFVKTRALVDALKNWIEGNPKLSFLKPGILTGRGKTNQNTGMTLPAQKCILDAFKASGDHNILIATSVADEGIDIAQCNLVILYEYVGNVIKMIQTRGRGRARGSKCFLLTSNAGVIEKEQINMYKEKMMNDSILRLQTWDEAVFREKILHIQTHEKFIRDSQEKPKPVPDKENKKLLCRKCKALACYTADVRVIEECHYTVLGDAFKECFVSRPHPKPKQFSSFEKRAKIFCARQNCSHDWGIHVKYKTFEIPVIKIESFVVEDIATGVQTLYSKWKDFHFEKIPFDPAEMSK
T1 sequence 2: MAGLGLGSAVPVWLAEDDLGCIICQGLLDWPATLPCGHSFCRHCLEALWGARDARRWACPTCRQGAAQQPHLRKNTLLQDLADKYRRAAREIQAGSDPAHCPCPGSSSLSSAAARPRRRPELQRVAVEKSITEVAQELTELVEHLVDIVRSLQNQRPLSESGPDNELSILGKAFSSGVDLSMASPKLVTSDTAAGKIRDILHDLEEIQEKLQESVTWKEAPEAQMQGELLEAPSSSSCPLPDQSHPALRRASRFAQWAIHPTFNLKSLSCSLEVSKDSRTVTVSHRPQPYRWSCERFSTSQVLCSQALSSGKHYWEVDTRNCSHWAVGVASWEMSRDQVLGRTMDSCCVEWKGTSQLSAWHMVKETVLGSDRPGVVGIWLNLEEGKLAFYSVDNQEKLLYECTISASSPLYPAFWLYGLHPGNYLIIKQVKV
Test: EMSA

B1: 21 bp dsRNA (dsRNA)
RNA 1: GAGUCACGACGUUGUAAAAAA
RNA 2: UUUUUUACAACGUCGUGACUC
modifications: 5'ppp
binding result: binds
